The record followed here is the supplement of paper PMC9732359.

± gives the uncertainty stated by the source.

The data set is described as follows: protein stability index of a GFP-peptide fusion (yeast GPS) (PSI 1-4); higher = more stable; sorted into four equal gates, so the index is relative within each strain. In outline:
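Each library plasmid carries Cherry plus GFP with a tiled 17-residue yeast protein peptide fused downstream, and the pooled library was carried in yeast. Mid-log cultures in leucine-free medium were sorted into four equal gates by GFP/Cherry ratio. Reads from Illumina sequencing of PCR-amplified plasmids from each gate were assigned to strains by barcodes. Per peptide, the protein stability index was computed as the summed products of gate read frequency and gate number.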

As for LLNDECTESTRENALYD [SNF2], the protein stability index by setting is: (doa10∆) 3.39 ± 0.2; (pdr5∆) 3.07 ± 0.15; (san1∆) 3.31 ± 0.071; (ubr1∆) 3.69 ± 0.15.

Take EDEGEELTDEYLAENPD [PRP8]: the protein stability index is 3.43 ± 0.12 (doa10∆), 3.39 ± 0.13 (pdr5∆), 3.33 ± 0.12 (san1∆) and 3.34 ± 0.092 (ubr1∆).

Regarding SSVMSSPRVEKRSFSST [YOR098C/NUP1], the protein stability index amounted to 2.75 ± 0.057 (doa10∆), 2.23 ± 0.041 (pdr5∆), 2.44 ± 0.052 (san1∆) and 2.54 ± 0.039 (ubr1∆).

Turning to FILLDRLRQFNLQPIST [SMC4], the protein stability index was 2.22 ± 0.04 (doa10∆), 1.56 ± 0.037 (pdr5∆), 1.49 ± 0.061 (san1∆) and 1.32 ± 0.042 (ubr1∆).

HYNDSQQLRTWKRQISY [SRB8]: the protein stability index turned out to be 3.25 ± 0.085 (doa10∆), 3.39 ± 0.14 (pdr5∆), 3.21 ± 0.09 (san1∆) and 3.32 ± 0.19 (ubr1∆).

SMILGVAASIIPFPDHN [RPB2]: the protein stability index is 2.21 ± 0.12 (doa10∆), 2.41 ± 0.12 (pdr5∆), 2.27 ± 0.21 (san1∆) and 2.8 ± 0.094 (ubr1∆).

Regarding RNNVANKQPRNESFNRR [YAR002W/NUP60], the protein stability index is 3.04 ± 0.088 (doa10∆), 3.41 ± 0.18 (pdr5∆), 2.31 ± 0.12 (san1∆) and 3.24 ± 0.14 (ubr1∆).

Turning to SSATIVLCLTRSSYMLE [YCG1], the protein stability index was 1.76 ± 0.035 (doa10∆), 2.1 ± 0.038 (pdr5∆), 1.91 ± 0.048 (san1∆) and 2.23 ± 0.032 (ubr1∆).

For LASPEVKVHMDSETSDP [DIS3], the protein stability index worked out at 3.09 ± 0.082 (doa10∆), 3.38 ± 0.071 (pdr5∆), 3.03 ± 0.071 (san1∆) and 3.12 ± 0.051 (ubr1∆).

Regarding NNKNKRVTGAGGQQRRM [RPC53], the protein stability index reads like this: (pdr5∆) 2.78 ± 0.2; (ubr1∆) 3.33 ± 0.073.

TKMFEDRREKAERTMSK [SMC2]: the protein stability index is, setting by setting: (doa10∆) 3.4 ± 0.14; (pdr5∆) 3.37 ± 0.1; (san1∆) 3.22 ± 0.086; (ubr1∆) 3.54 ± 0.088.

Take VDAITRCYQPFELFDNK [SNU114]: the protein stability index is 3 ± 0.073 (doa10∆), 3.06 ± 0.068 (pdr5∆), 2.96 ± 0.049 (san1∆) and 3 ± 0.068 (ubr1∆).

On to EDFAPLLAEEEELILPN [PRP8], for which the protein stability index is 3.14 ± 0.17 (doa10∆), 3.38 ± 0.15 (pdr5∆), 2.93 ± 0.066 (san1∆) and 2.78 ± 0.1 (ubr1∆).

With KCLNYRNVNWIERLTKR [ITC1], the protein stability index is 2.91 ± 0.084 (doa10∆), 3.07 ± 0.052 (pdr5∆), 2.96 ± 0.05 (san1∆) and 3.09 ± 0.038 (ubr1∆).

On to DRETALDFIGRRGTALG [RPB2], for which the protein stability index came to 2.23 ± 0.072 (doa10∆), 2.07 ± 0.065 (pdr5∆), 2.22 ± 0.059 (san1∆) and 2.14 ± 0.066 (ubr1∆).

As for QEESFSLNLGIGIVEIA [SRB8], the protein stability index was 1.33 ± 0.11 (doa10∆), 1.79 ± 0.088 (pdr5∆), 2.08 ± 0.29 (san1∆) and 1.89 ± 0.094 (ubr1∆).

Sequence LDKQIEELVEAIVLPMK [RPT5] showed a protein stability index (doa10∆) of 2.97 ± 0.15, a protein stability index (pdr5∆) of 3.02 ± 0.15, a protein stability index (san1∆) of 3.45 ± 0.12 and a protein stability index (ubr1∆) of 3.43 ± 0.15.

As for RITNSFYSTNSQYFKFK [RPN9], the protein stability index came to 2.5 ± 0.1 (doa10∆), 2.38 ± 0.076 (pdr5∆), 2.42 ± 0.086 (san1∆) and 2.83 ± 0.16 (ubr1∆).

For LRRGNYAQRIGSGAPVY [HTA1], the protein stability index was found to be 2.19 ± 0.21 (doa10∆), 2.86 ± 0.17 (pdr5∆) and 2.4 ± 0.26 (san1∆).

As to RKVRTKKWKKYWQYKAG [SWP82], the protein stability index is, setting by setting: (doa10∆) 2.47 ± 0.089; (pdr5∆) 2.17 ± 0.12; (san1∆) 2.83 ± 0.12; (ubr1∆) 2.04 ± 0.058.

GELLHHPIMETIVNDSN [RPN9]: the protein stability index by setting is: (doa10∆) 2.6 ± 0.053; (pdr5∆) 2.77 ± 0.054; (san1∆) 2.2 ± 0.08; (ubr1∆) 2.97 ± 0.078.

In the case of VSFRTHNSHLSLNYKFT [SRP21], the protein stability index (doa10∆) stood at 3.01 ± 0.048, the protein stability index (pdr5∆) worked out at 2.99 ± 0.046, the protein stability index (san1∆) worked out at 3 ± 0.051 and the protein stability index (ubr1∆) came out at 3.15 ± 0.039.

As for SAIIENAFRKEELLLKD [GAL11], the protein stability index came out at 1.14 ± 0.16 (pdr5∆) and 1.18 ± 0.22 (ubr1∆).

Consider FICSIIQTVVISLLALP [YML031W/NDC1], for which the protein stability index turned out to be 1.43 ± 0.11 (doa10∆), 1.36 ± 0.076 (pdr5∆), 1.34 ± 0.11 (san1∆) and 2.12 ± 0.11 (ubr1∆).

Turning to SVTEIPLKLSGEGPFTV [YMR129W/POM152], the protein stability index runs as follows: (doa10∆) 2.96 ± 0.072; (pdr5∆) 3.23 ± 0.079; (san1∆) 2.78 ± 0.078; (ubr1∆) 2.81 ± 0.16.

Turning to QNIAQSSNQSAPVETKK [HRT1], the protein stability index runs as follows: (doa10∆) 3.01 ± 0.11; (pdr5∆) 2.91 ± 0.14; (san1∆) 3.47 ± 0.15; (ubr1∆) 3.16 ± 0.067.
